In US20240254182A1 (PROVINCIAL HEALTH SERVICES AUTHORITY, published 2024):

T1: site II design 15 G-CSFR(CRH)E with N-terminal hexahistidine tag (human)
T1 construct: also called design #15 G-CSFRE
T1 chain: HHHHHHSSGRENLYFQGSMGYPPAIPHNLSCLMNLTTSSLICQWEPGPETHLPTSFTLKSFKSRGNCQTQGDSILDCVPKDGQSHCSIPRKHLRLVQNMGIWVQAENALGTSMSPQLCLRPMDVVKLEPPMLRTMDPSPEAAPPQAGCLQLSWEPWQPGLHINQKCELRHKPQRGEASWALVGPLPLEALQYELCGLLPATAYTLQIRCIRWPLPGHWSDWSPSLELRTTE

T2: site II design 35 G-CSFR(CRH)E with N-terminal hexahistidine tag (human)
T2 construct: also called design #35 G-CSFRE
T2 chain: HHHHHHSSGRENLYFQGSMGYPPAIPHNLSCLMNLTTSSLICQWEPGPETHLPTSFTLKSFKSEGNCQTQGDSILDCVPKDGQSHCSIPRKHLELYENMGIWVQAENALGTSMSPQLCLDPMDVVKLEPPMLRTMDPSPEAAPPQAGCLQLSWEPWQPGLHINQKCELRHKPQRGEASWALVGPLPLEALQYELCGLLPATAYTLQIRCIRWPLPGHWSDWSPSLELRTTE

T3: site II design 34 G-CSFR(CRH)E with N-terminal hexahistidine tag (human, UniProt Q99062 120-331)
T3 construct: also called design #34 G-CSFRE
T3 chain: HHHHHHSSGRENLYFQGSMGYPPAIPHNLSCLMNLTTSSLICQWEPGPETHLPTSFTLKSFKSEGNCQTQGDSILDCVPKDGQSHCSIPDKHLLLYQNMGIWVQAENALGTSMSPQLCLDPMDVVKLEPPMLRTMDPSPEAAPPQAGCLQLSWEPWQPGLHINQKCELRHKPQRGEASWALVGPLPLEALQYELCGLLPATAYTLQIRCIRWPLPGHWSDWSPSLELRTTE

T4: site II design 30 G-CSFR(CRH)E with N-terminal hexahistidine tag (human, UniProt Q99062 120-331)
T4 construct: also called design #30 G-CSFRE
T4 chain: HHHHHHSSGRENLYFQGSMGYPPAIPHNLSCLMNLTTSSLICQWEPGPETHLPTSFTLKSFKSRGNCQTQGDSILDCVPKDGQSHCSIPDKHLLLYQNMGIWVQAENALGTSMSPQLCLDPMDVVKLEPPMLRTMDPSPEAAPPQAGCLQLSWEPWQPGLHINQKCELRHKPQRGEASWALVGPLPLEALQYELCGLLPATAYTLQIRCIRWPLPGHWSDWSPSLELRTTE

T5: combination design 402 G-CSFR(Ig-CRH)E with N-terminal hexahistidine tag (human, UniProt Q99062 25-331)
T5 chain: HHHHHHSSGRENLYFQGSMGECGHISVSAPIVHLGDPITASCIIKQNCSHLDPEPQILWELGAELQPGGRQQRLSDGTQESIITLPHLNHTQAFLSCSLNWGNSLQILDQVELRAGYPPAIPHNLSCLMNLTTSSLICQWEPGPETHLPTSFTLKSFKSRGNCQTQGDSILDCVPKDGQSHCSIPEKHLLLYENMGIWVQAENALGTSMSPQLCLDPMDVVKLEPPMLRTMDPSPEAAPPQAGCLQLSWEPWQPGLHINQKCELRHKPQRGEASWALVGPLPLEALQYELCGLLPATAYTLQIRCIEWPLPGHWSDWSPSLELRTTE

T6: combination design 401 G-CSFR(Ig-CRH)E with N-terminal hexahistidine tag (human, UniProt Q99062 25-331)
T6 chain: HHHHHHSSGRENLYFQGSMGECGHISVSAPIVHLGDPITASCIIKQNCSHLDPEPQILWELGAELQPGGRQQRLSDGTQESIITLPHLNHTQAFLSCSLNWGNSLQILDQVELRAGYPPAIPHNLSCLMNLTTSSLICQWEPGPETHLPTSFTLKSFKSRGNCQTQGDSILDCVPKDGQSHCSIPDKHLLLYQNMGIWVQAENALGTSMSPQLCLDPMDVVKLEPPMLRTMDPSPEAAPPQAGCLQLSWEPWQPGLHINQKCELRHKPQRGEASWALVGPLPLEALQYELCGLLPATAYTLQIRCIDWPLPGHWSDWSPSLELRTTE

T7: design 300 G-CSFR(Ig-CRH)E, tag cleaved (human, UniProt Q99062 26-331)
T7 chain: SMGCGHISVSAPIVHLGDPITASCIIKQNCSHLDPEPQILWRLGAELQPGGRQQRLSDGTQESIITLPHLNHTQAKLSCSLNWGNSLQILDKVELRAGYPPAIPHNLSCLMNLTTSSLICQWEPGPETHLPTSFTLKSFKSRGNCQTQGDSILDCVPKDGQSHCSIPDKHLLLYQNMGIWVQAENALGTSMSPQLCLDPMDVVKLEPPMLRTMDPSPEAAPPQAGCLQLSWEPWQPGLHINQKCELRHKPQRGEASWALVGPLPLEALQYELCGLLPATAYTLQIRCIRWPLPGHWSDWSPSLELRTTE

T8: WT G-CSFR(Ig-CRH), purified, tag cleaved (human, UniProt Q99062 26-331)
T8 construct: also called G-CSFRWT; wild type G-CSFR(Ig-CRH)
T8 chain: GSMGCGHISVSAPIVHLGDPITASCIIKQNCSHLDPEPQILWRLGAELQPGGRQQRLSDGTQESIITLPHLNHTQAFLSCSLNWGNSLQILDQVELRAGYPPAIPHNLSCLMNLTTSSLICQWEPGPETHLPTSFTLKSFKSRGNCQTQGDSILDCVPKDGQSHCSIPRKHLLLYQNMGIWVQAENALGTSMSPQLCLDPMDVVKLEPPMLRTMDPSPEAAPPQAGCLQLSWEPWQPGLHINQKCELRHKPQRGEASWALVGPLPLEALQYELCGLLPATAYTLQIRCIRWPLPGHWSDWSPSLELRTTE

T9: design 303 G-CSFR(Ig-CRH)E, tag cleaved (human, UniProt Q99062 26-331)
T9 chain: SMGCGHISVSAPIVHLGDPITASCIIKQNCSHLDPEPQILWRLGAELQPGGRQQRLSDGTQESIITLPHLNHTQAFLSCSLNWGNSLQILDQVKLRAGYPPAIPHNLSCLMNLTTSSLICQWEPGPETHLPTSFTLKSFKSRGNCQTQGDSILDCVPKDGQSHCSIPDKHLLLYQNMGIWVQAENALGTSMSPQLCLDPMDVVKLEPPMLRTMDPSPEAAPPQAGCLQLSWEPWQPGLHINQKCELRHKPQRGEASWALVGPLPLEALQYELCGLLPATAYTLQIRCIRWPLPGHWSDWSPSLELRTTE

B1: WT G-CSF with C-terminal Twin Strep tag (ligand)
chain: not shown
notes: construct of the insect-cell co-expression pulldown; also called G-CSFWT
B2: design 300 G-CSFE, tag cleaved (ligand)
chain: TPLGPASSLPQSFLLKCLEQVRKIQGDGAALQEKLCATYDDCHPEELVLLGHSLGIPWAPLSSCPSQALQLAGCLSQLHSGLFLYQGLLQALEGISPELGPTLDTLQKDVARFATTIWQQMEELGMAPALQPTQGAMPAFASAFQRRAGGVLVASHLQSFLEVSYRVLRHLAQAAAENLYFQ
notes: also called design 300 G-CSFE mutant
B3: design 303 G-CSFE, tag cleaved (ligand)
chain: TPLGPASSLPQSFLLKCLEQVRKIQGDGAALQEKLCATYKLCHPEELVLLGHSLGIPWAPLSSCPSQALQLAGCLSQLHSGLFLYQGLLQALEGISPELGPTLDTLQKDVARFATTIWQQMEELGMAPALQPTQGAMPAFASAFQREAGGVLVASHLQSFLEVSYRVLRHLAQAAAENLYFQ
notes: also called design 303 G-CSFE mutant

How the values were obtained:
[1] = molecular target: T1, site II design 15 G-CSFR(CRH)E with …; assay: WT G-CSF co-expressed with variant G-CSFR(CRH) in insect cells, pulldown via the Twin Strep tag on G-CSF, reducing SDS-PAGE
Method: (§1) The P2 viral stocks were tested for protein expression in small-scale. P2 virus was used to co-infect G-CSFE mutants with their corresponding G-CSFRE mutant in Trichoplusia ni (Tni) cells in 12-well plates. Separate co-infections for each design mutant were performed using the P2 stocks of G-CSFWT and GCSFR(CRH)WT, as well as for G-CSFE mutants alone. For each reaction, 2 mL of healthy log-phase Tni at 2×10⁶ cells ml⁻¹ was inoculated with 20 μl P2 virus. Plates were incubated at 27° C. for approximately 70 h with shaking at 135 rpm. […] Briefly, to each 1.8 mL reaction supernatant 0.2 mL 10× HEPES Buffered Saline (HBS: 20 mM HEPES pH8, 150 mM NaCl) was added to 1×, 20 μl bed volume (b.v) of purification beads added and reactions incubated for 30 minutes with end-over-end mixing at 24° C. An additional 20 μl b.v of purification beads was added followed by a second 30 minute incubation. Beads were pelleted by centrifugation at 2200 rpm for 3 minutes, supernatant was removed and the beads washed with 1× HBS buffer.

[2] = molecular target: T2, site II design 35 G-CSFR(CRH)E with …; assay: as above
Method: as §1

[3] = molecular target: T3, site II design 34 G-CSFR(CRH)E with …; assay: as above
Method: as §1

[4] = molecular target: T4, site II design 30 G-CSFR(CRH)E with …; assay: as above
Method: as §1

[5] = molecular target: T5, combination design 402 G-CSFR(Ig-CRH)E …; assay: co-expression in insect cells, pulldown via the Twin Strep tag on G-CSF, reducing SDS-PAGE; G-CSFR(Ig-CRH) format
Method: as §1
(§2) The co-expression assay with pulldown through the cytokine TST tag was performed as described above in Example 2, with the difference that the receptor constructs contained the Ig and CRH domains (residues 2-308, Table 1) referred to as G-CSFR(Ig-CRH).

[6] = molecular target: T6, combination design 401 G-CSFR(Ig-CRH)E …; assay: as above
Method: as §1, §2

[7] = molecular target: T7, design 300 G-CSFR(Ig-CRH)E, tag cleaved; assay: SPR, G-CSFRE amine-coupled, G-CSFE injected, single-cycle kinetics
Method: (§3) The SPR binding assays were carried out on a Biacore T200 instrument (GE Healthcare, Mississauga, ON, Canada) with PBS-T (PBS+0.05% (v/v) Tween 20) running buffer at a temperature of 25° C. CM5 Series S sensor chip, Biacore amine coupling kit (NHS, EDC and 1 M ethanolamine), and 10 mM sodium acetate buffers were all purchased from GE Healthcare. PBS running buffer with 0.05% Tween20 (PBS-T) was purchased from Teknova Inc. (Hollister, CA). Designs were assessed in three different immobilization orientations.
(§4) To determine binding affinity of G-CSFE to G-CSFRE the G-CSFRE mutant was captured by standard amine coupling as described by the manufacturer (GE LifeSciences). Briefly, immediately after EDC/NHS activation, a 5 μg/mL solution of G-CSFRE in 10 mM NaOAc, pH 5.0, was injected at a flow rate of 5 μL/min until a receptor density of ˜700-900 RU was reached. The remaining active groups were quenched by a 420 s injection of 1 M ethanolamine hydrochloride-NaOH pH 8.5 at 10 μL/min. Using single-cycle kinetics, six concentrations of a two-fold dilution series of the corresponding G-CSFE mutant starting at 200 nM with a blank buffer control were sequentially injected at 25 μL/min for 300 s with a 1800 s dissociation phase, resulting in a set of sensorgrams with a buffer blank reference. The same sample titration was also performed on a reference cell with no variants captured. The chip was regenerated to prepare for the next injection cycle by one pulse of 10 mM glycine/HCl, pH 2.0, for 30 s at 30 μL/min.
(§5) Double-referenced sensorgrams from duplicate or triplicate repeat injections were analyzed using Biacore™ T200 Evaluation Software v3.0 and fit to the 1:1 Langmuir binding model.

[8] = molecular target: T8, WT G-CSFR(Ig-CRH), purified, tag cleaved; assay: SPR (Biacore T200), WT receptor amine-coupled, cytokine injected
Method: as §3
To assess binding affinity of G-CSFE to G-CSFRWT, recombinant G-CSFRWT purified as described in Example 5 was captured as described above in this Example. Using single-cycle kinetics, six concentrations of a two-fold dilution series of each G-CSFE mutant starting at […] with a blank buffer control were sequentially injected as described above. The same sample titration was also performed on a reference cell with no variants captured. The G-CSFRWT surface was regenerated as described above.
as §5

[9] = molecular target: T9, design 303 G-CSFR(Ig-CRH)E, tag cleaved; assay: SPR, G-CSFRE amine-coupled, G-CSFE injected; steady state derived affinity constant
Method: as §4, §5
Kinetic-derived affinity constants (KD) where obtained by fitting the association and dissociation phases of the curves. The KD of WT G-CSF for WT G-CSFR(Ig-CRH) ranged between 1.8-2.5E-9. For the cases in which the kinetic parameters could not be fit an attempt was made to derive a steady state affinity constant. In those cases, the KD fold change was calculated from the steady state derived KD for the WT G-CSF:WT G-CSFR(Ig-CRH) pair and is indicated in Table 7.

Row | Binder | binding result [1] | binding result [2] | binding result [3] | binding result [4] | binding result [5] | binding result [6] | KD fold change (against WT:WT) [7] [fold] | binding result [8] | KD fold change (against WT:WT) [9] [fold]
1 | B1 | no binding | no binding | no binding | no binding | no binding | no binding |  |  | 
2 | B2 |  |  |  |  |  |  | 194 | no binding | 
3 | B3 |  |  |  |  |  |  |  | no binding | 2.2
